Assay results reported in patent publication US20250277200.

Experiments:
[1] = test system: T1, C5a
T1 sequence: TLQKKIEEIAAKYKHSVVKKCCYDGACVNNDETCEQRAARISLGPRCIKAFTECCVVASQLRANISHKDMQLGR

[2] = test system: C3a
Sequence of C3a (chain, as listed by the source): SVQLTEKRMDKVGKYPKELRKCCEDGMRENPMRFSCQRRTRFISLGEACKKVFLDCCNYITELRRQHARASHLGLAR

Sequence of CPN1-HSA (chain): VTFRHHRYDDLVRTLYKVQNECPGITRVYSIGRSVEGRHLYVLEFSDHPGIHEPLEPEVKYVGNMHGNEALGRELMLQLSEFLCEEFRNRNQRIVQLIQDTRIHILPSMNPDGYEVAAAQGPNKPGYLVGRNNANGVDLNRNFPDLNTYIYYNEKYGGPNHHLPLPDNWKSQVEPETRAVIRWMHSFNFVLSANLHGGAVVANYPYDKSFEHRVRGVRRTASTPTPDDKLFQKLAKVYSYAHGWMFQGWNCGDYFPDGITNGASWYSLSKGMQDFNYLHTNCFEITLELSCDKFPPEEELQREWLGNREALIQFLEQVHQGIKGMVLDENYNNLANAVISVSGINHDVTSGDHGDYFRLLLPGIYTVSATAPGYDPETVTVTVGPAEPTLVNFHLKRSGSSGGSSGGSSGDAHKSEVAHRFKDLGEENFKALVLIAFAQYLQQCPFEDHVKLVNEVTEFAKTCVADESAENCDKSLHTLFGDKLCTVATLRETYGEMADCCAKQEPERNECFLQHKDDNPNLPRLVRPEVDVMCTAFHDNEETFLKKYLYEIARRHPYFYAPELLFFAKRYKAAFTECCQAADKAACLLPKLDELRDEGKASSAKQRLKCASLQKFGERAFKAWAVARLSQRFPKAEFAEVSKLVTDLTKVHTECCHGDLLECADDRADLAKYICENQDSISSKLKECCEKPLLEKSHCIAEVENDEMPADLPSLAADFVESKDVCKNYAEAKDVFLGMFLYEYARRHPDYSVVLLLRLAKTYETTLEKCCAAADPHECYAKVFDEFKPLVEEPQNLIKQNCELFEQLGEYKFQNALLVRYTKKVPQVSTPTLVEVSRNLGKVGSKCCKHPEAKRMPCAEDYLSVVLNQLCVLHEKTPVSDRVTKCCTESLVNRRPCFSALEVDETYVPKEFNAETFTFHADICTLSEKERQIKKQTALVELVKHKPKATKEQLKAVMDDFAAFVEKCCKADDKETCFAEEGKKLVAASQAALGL

Substance: CPN1-HSA
- % Cleavage (GPCR assay, purified enzyme) [1]: 82%
- % Cleavage (GPCR assay, supernatant) [1]: 97%
- % Cleavage (GPCR assay, purified enzyme) [2]: 100%
- % Cleavage (GPCR assay, supernatant) [2]: 100%
- Kcat/KM (Arg LC-MS/MS, purified enzyme) [2]: 800000 M⁻¹ s⁻¹
